Entries after “also recorded” stand apart in the source; their conditions may differ.
Tests used:
[1] = system: extracellular matrix (ECM) components: Collagen type I, II, III and IV, elastin, hyaluronic acid and Geltrex; test: ECM specificity binding test, whole panel; conditions: 5.0 mg/ml peptide, FIG. 4
Procedure: (§1) Peptides were incubated 24 hours at 37° C. on collagens I-IV, elastin, hyaluronic acid, and Geltrex. Coatings (10 pig/cm^2) were previously dried overnight in milli-Q water. Overall significance was assessed using analysis of variance, with Tukey's multiple comparison post-hoc analysis between ECM groups where n=4.
(§2) Hyaluronic acid, collagens I, II, III, and IV, elastin, and Geltrex were coated onto 96-well black plates (medium binding affinity) at 10 μg/cm^2 and were dried in milli-Q water at room temperature. N-termini biotinylated peptides were added to coated plates at 0, 1, 2.5, 5 and 10 mg/ml overnight at 37° C. in phosphate buffered saline (PBS), pH 7.4, after which the plates were washed three times with PBS. Fluorescent streptavidin-488 (4 μg/mL) was added to each well and incubated at 37° C. temperature for 24 hours, then thoroughly washed with PBS. The plates were read with a fluorescence microplate reader for fluorescence intensity (Ex 490 nm, Em 525 nm). All data were normalized to the background fluorescence intensity of Streptavidin-488.

[2] = ECM specificity binding test, hyaluronic acid coating; conditions: 5.0 mg/ml peptide, FIG. 4
Procedure: as §1, §2

[3] = Concentration-dependent peptide binding to hyaluronic acid coating (biotin-streptavidin fluorescence)
Procedure: Peptides were incubated 24 hours at 37° C. Coatings (10 μg/cm^2) were previously dried overnight in milli-Q water. Overall significance was assessed using analysis of variance, with Tukey's multiple comparison post-hoc analysis between 1-scrm and experimental groups where n=4.
N-termini biotinylated peptides were added to coated plates at 0, 1, 2.5, 5 and 10 mg/ml overnight at 37° C. in phosphate buffered saline (PBS), pH 7.4, after which the plates were washed three times with PBS.

[4] = Transmission electron microscopy (TEM) of peptide nanostructures; format: physicochemical
Procedure: The sample and stain were filter-dried in between steps. Samples were collected 24 hours at 37° C. after 30 minutes of sonication. All TEM was performed on a Philips FEI Technai Spirit G2 electron microscope. Peptides were incubated in both PBS and SC.

[5] = Circular dichroism (CD) of peptides; format: physicochemical; conditions: 20 mM Sodium Cacodylate; for Ellipticity ratio (222 nm/208 nm) / Ellipticity 208 nm / Ellipticity 222 nm: 1.25 mg/mL; for Ellipticity 208 nm / Ellipticity 222 nm: CD data given as [θ]M×10^−3; for wavelength Minimum of CD profile: 5.0 mg/mL
Procedure: Data is presented in ellipticity ([θ]M×10^−3) as a function of spectral wavelength (λ).
Sodium cacodylate (SC), 20 mM pH 7.4, without and with 20% TFE was used to reduce phosphate related background signal and enhance detected structures. Circular dichroism (CD) data were collected in millidegrees, 0, and converted to molar ellipticity, [θ]M, and are expressed in units of deg×cm^2×dmol^−1. Scan speeds and digital integration times were 500 nm/min and 1 second, respectively. The data on the Y axis of the CD plots is [θ]M×10^−3. […] Consequently, CD signals are reported in the 190-260 nm range.

[6] = 1H NMR of supernatant of peptide-hyaluronic acid mixtures (loss of HA and peptide from solution); format: binding; conditions: 5 mg/mL HA
Procedure: FIGS. 7A-7C show Nuclear magnetic resonant (NMR) proton spectra of representative (i) hyaluronic acid peaks and (ii) biotinyl peptide peaks and for (FIG. 7A) mPEP35, (FIG. 7B) 1-scrm, and (FIG. 7C) 17x-3 in 25 mM sodium acetate buffer at pH 5.2. Samples represent supernatant (soluble component) of mixtures with 5 mg/mL HA in variable peptide mixture of 1.25, 2.5. and 5 mg/mL.
Peptides and HA were suspended in 25 mM sodium acetate buffer (pH 5.2), made up from 19 mM sodium acetate-d3, 6 mM acetic acid-d4, 10% D2O, and 1 mg/ml DSS-D6. All samples were centrifuged at 21,000 G to remove precipitate and the supernatant was collected for analysis, as only the liquid suspension could be used. NMR spectra were collected on an Avance NEO 600 MHz spectrometer at 298K with excitation sculpting used to suppress the water signal. Number of scans and receiver gain were identical for all NMR spectra.
As higher peptide binding was accompanied by apparent gel-like structure on the substrate, the binding event may be characterized by the change in concentration of either peptide or HA remaining in the solution. ^1H NMR is an ideal method for measuring changes in concentration in solution. It provides atom-specific information that can be used to distinguish signals of biotinylated peptides (6.4 ppm) from those of hyaluronic acid (3.5 ppm) as presented in FIG. 7. Sodium acetate (pH 5.2) was chosen as the buffer since it provides better spectral quality of the amide signals than pH 7.4 buffer. Focus was placed on characterizing the binding of mPEP35, 1-scrm, and 17x-3, which reflect a positive control, a negative control, and a potent binder, respectively. Measurements were taken after centrifugation to remove gel that formed when peptide and HA are mixed. It should be noted that only HN peaks of the peptide show slight chemical shift perturbation upon addition of HA.

Question: What does the source list for “KTKATVLIKNKQKSKNALKQKIVLLSK [Peptide 17x-3, de novo designed peptide with five B(X7)B domains]”?
Answer: binding to the ECMs (for 17x-3: the ECMs other than hyaluronic acid) [1]: does not bind significantly; specificity of binding to ECMs [1]: high specificity; binding to hyaluronic acid in specificity testing [2]: binds primarily; binding to hyaluronic acid with increasing concentrations of peptide (fluorescence intensity) ([3]; 0-10 mg/ml peptide, PBS pH 7.4, 37° C., HA coating 10 μg/cm^2, FIG. 3): increases dramatically; HA binding compared to mPEP35 ([3]; higher concentrations (5-10 mg/ml)): significantly stronger binder; HA binding, overall assessment ([3]; summary and discussion statements): proficient and specific binders; also recorded: HA specific and robust binders; TEM characterization, Phosphate Buffered Saline (i) ([4]; PBS pH 7.4, 0.5% w/v, 30 minutes sonication, 24 hrs at 37° C.): fibers with many striations form larger fibers and the larger fibers tend to form a mesh network; nanofiber formation in TEM, overall ([4]; both PBS and sodium cacodylate): consistent nanofibers; also recorded: predominantly form fibers with striations and furthermore form a mesh network; Ellipticity ratio (222 nm/208 nm) [5]: 0.48; Ellipticity 208 nm [5]: −135; Ellipticity 222 nm [5]: −64.4; wavelength Minimum of CD profile [5]: 223 nm; Ellipticity ratio (222 nm/208 nm) ([5]; 20% TFE): 0.72; Ellipticity 208 nm ([5]; 20% TFE): −175; Ellipticity 222 nm ([5]; 20% TFE): −126; wavelength Minimum of CD profile ([5]; 20% TFE): 221 nm; HA spectra retained ([6]; 1.25 mg/mL peptide): ~80%; HA spectra / removal of HA from solution ([6]; 2.5 and 5 mg/mL peptide): nearly gone; also recorded: almost entirely removed; also recorded: pull all HA out of solution; peptide removed from solution ([6]; 2.5 to 5 mg/mL peptide): ~90%
